Key:
cross-linking [1] = biological target: the molecule itself; experiment: cross-linking
[2] = biological target: the molecule itself; experiment: SDS-resistant band in nonreducing SDS-PAGE with Western blot
pull-down = biological target: the molecule itself; experiment: pull-down
cross-linking [3] = biological target: the molecule itself; experiment: cross-linking; remark: listed apart in the source

Protein	stoichiometry N (cross-linking [1])	also measured
wild-type dopamine transporter (DAT^WT), no tag named (natural protein, human, UniProt Q01959 1-620, looked up) MSKSKCSVGLMSSVVAPAKEPNAVGPKEVELILVKEQNGVQLTSSTLTNPRQSPVEAQDRETWGKKIDFLLSVIGFAVDLANVWRFPYLCYKNGGGAFLVPYLLFMVIAGMPLFYMELALGQFNREGAAGVWKICPILKGVGFTVILISLYVGFFYNVIIAWALHYLFSSFTTELPWIHCNNSWNSPNCSDAHPGDSSGDSSGLNDTFGTTPAAEYFERGVLHLHQSHGIDDLGPPRWQLTACLVLVIVLLYFSLWKGVKTSGKVVWITATMPYVVLTALLLRGVTLPGAIDGIRAYLSVDFYRLCEASVWIDAATQVCFSLGVGFGVLIAFSSYNKFTNNCYRDAIVTTSINSLTSFSSGFVVFSFLGYMAQKHSVPIGDVAKDGPGLIFIIYPEAIATLPLSSAWAVVFFIMLLTLGIDSAMGGMESVITGLIDEFQLLHRHRELFTLFIVLATFLLSLFCVTNGGIYVFTLLDHFAAGTSILFGVLIEAIGVAWFYGVGQFSDDIQQMTGQRPSLYWRLCWKLVSPCFLLFVVVVSIVTFRPPHYGAYIFPDWANALGWVIATSSMAMVPIYAAYKFCSLPGSFREKLAYAIAPEKDRELVDRGEVRQFTLRHWLKV	2	–
Myc-tagged wild-type glycine transporter 2 (Myc-GlyT2^WT) (natural protein, mouse, UniProt Q761V0 1-799, looked up) MDCSAPKEMNKQPANILEAAVPGHRDSPRAPRTSPEQDLPAEAPAATVQPPRVPRSASTGAQTFQSADARACEAQQSGVGFCNLSSPRAQATSAALRDLSEGHSAQANPPSGPAGAGNALHCKIPALRGPEEDANVSVGKGTLEHNNTPAVGWVNMSQSTVVLGTDGIASVLPGSVATTTIPEDEQGDENKARGNWSSKLDFILSMVGYAVGLGNVWRFPYLAFQNGGGAFLIPYLMMLALAGLPIFFLEVSLGQFASQGPVSVWKAIPALQGCGIAMLIISVLIAIYYNVIICYTLFYLFASFVSVLPWGSCNNPWNTPECKDKTKLLLDSCVIGDHPKIQIKNSTFCMTAYPNLTMVNFTSQTNKTFVSGSEEYFKYFVLKISAGIEYPGEIRWPLAFCLFLAWVIVYASLAKGIKSSGKVVYFTATFPYVVLVILLIRGVTLPGAGAGIWYFITPKWEKLTDATVWKDAATQIFFSLSAAWGGLITLSSYNKFHNNCYRDTLIVTCTNSATSIFAGFVIFSVIGFMANERKVNIENVADQGPGIAFVVYPEALTRLPLSPFWAIIFFLMLLTLGLDTMFATIETIVTSISDEFPKYLRTHKPVFTLGCCICFFIMGFPMITQGGIYMFQLVDTYAASYALVIIAIFELVGISYVYGLQRFCEDIEMMIGFKPNIFWKVCWAFVTPTILTFILCFSFYQWEPMTYGSYRYPNWSMVLGWLMLACSVIWIPIMFVIKMYLAPGRFIERLKLVCSPQPDWGPFLAQHRGERYKNMIDPLGTSSLGLKLPVKDLELGTQC	–	stoichiometry N [2]: 2
His- or Myc-tagged GlyT2^T464C (natural protein, mouse, UniProt Q761V0 1-799, looked up) MDCSAPKEMNKQPANILEAAVPGHRDSPRAPRTSPEQDLPAEAPAATVQPPRVPRSASTGAQTFQSADARACEAQQSGVGFCNLSSPRAQATSAALRDLSEGHSAQANPPSGPAGAGNALHCKIPALRGPEEDANVSVGKGTLEHNNTPAVGWVNMSQSTVVLGTDGIASVLPGSVATTTIPEDEQGDENKARGNWSSKLDFILSMVGYAVGLGNVWRFPYLAFQNGGGAFLIPYLMMLALAGLPIFFLEVSLGQFASQGPVSVWKAIPALQGCGIAMLIISVLIAIYYNVIICYTLFYLFASFVSVLPWGSCNNPWNTPECKDKTKLLLDSCVIGDHPKIQIKNSTFCMTAYPNLTMVNFTSQTNKTFVSGSEEYFKYFVLKISAGIEYPGEIRWPLAFCLFLAWVIVYASLAKGIKSSGKVVYFTATFPYVVLVILLIRGVTLPGAGAGIWYFITPKWEKLCDATVWKDAATQIFFSLSAAWGGLITLSSYNKFHNNCYRDTLIVTCTNSATSIFAGFVIFSVIGFMANERKVNIENVADQGPGIAFVVYPEALTRLPLSPFWAIIFFLMLLTLGLDTMFATIETIVTSISDEFPKYLRTHKPVFTLGCCICFFIMGFPMITQGGIYMFQLVDTYAASYALVIIAIFELVGISYVYGLQRFCEDIEMMIGFKPNIFWKVCWAFVTPTILTFILCFSFYQWEPMTYGSYRYPNWSMVLGWLMLACSVIWIPIMFVIKMYLAPGRFIERLKLVCSPQPDWGPFLAQHRGERYKNMIDPLGTSSLGLKLPVKDLELGTQC	–	stoichiometry N (pull-down): 2
GlyT2^T464C (no tag named) (natural protein, mouse, UniProt Q761V0 1-799, looked up) MDCSAPKEMNKQPANILEAAVPGHRDSPRAPRTSPEQDLPAEAPAATVQPPRVPRSASTGAQTFQSADARACEAQQSGVGFCNLSSPRAQATSAALRDLSEGHSAQANPPSGPAGAGNALHCKIPALRGPEEDANVSVGKGTLEHNNTPAVGWVNMSQSTVVLGTDGIASVLPGSVATTTIPEDEQGDENKARGNWSSKLDFILSMVGYAVGLGNVWRFPYLAFQNGGGAFLIPYLMMLALAGLPIFFLEVSLGQFASQGPVSVWKAIPALQGCGIAMLIISVLIAIYYNVIICYTLFYLFASFVSVLPWGSCNNPWNTPECKDKTKLLLDSCVIGDHPKIQIKNSTFCMTAYPNLTMVNFTSQTNKTFVSGSEEYFKYFVLKISAGIEYPGEIRWPLAFCLFLAWVIVYASLAKGIKSSGKVVYFTATFPYVVLVILLIRGVTLPGAGAGIWYFITPKWEKLCDATVWKDAATQIFFSLSAAWGGLITLSSYNKFHNNCYRDTLIVTCTNSATSIFAGFVIFSVIGFMANERKVNIENVADQGPGIAFVVYPEALTRLPLSPFWAIIFFLMLLTLGLDTMFATIETIVTSISDEFPKYLRTHKPVFTLGCCICFFIMGFPMITQGGIYMFQLVDTYAASYALVIIAIFELVGISYVYGLQRFCEDIEMMIGFKPNIFWKVCWAFVTPTILTFILCFSFYQWEPMTYGSYRYPNWSMVLGWLMLACSVIWIPIMFVIKMYLAPGRFIERLKLVCSPQPDWGPFLAQHRGERYKNMIDPLGTSSLGLKLPVKDLELGTQC	2	–
His-tagged wild-type dopamine transporter (His-DAT^WT) (natural protein, human, UniProt Q01959 1-620, looked up) MSKSKCSVGLMSSVVAPAKEPNAVGPKEVELILVKEQNGVQLTSSTLTNPRQSPVEAQDRETWGKKIDFLLSVIGFAVDLANVWRFPYLCYKNGGGAFLVPYLLFMVIAGMPLFYMELALGQFNREGAAGVWKICPILKGVGFTVILISLYVGFFYNVIIAWALHYLFSSFTTELPWIHCNNSWNSPNCSDAHPGDSSGDSSGLNDTFGTTPAAEYFERGVLHLHQSHGIDDLGPPRWQLTACLVLVIVLLYFSLWKGVKTSGKVVWITATMPYVVLTALLLRGVTLPGAIDGIRAYLSVDFYRLCEASVWIDAATQVCFSLGVGFGVLIAFSSYNKFTNNCYRDAIVTTSINSLTSFSSGFVVFSFLGYMAQKHSVPIGDVAKDGPGLIFIIYPEAIATLPLSSAWAVVFFIMLLTLGIDSAMGGMESVITGLIDEFQLLHRHRELFTLFIVLATFLLSLFCVTNGGIYVFTLLDHFAAGTSILFGVLIEAIGVAWFYGVGQFSDDIQQMTGQRPSLYWRLCWKLVSPCFLLFVVVVSIVTFRPPHYGAYIFPDWANALGWVIATSSMAMVPIYAAYKFCSLPGSFREKLAYAIAPEKDRELVDRGEVRQFTLRHWLKV	2	–
His-GlyT2^T464C expressed in Xenopus laevis oocytes (natural protein, mouse, UniProt Q761V0 1-799, looked up) MDCSAPKEMNKQPANILEAAVPGHRDSPRAPRTSPEQDLPAEAPAATVQPPRVPRSASTGAQTFQSADARACEAQQSGVGFCNLSSPRAQATSAALRDLSEGHSAQANPPSGPAGAGNALHCKIPALRGPEEDANVSVGKGTLEHNNTPAVGWVNMSQSTVVLGTDGIASVLPGSVATTTIPEDEQGDENKARGNWSSKLDFILSMVGYAVGLGNVWRFPYLAFQNGGGAFLIPYLMMLALAGLPIFFLEVSLGQFASQGPVSVWKAIPALQGCGIAMLIISVLIAIYYNVIICYTLFYLFASFVSVLPWGSCNNPWNTPECKDKTKLLLDSCVIGDHPKIQIKNSTFCMTAYPNLTMVNFTSQTNKTFVSGSEEYFKYFVLKISAGIEYPGEIRWPLAFCLFLAWVIVYASLAKGIKSSGKVVYFTATFPYVVLVILLIRGVTLPGAGAGIWYFITPKWEKLCDATVWKDAATQIFFSLSAAWGGLITLSSYNKFHNNCYRDTLIVTCTNSATSIFAGFVIFSVIGFMANERKVNIENVADQGPGIAFVVYPEALTRLPLSPFWAIIFFLMLLTLGLDTMFATIETIVTSISDEFPKYLRTHKPVFTLGCCICFFIMGFPMITQGGIYMFQLVDTYAASYALVIIAIFELVGISYVYGLQRFCEDIEMMIGFKPNIFWKVCWAFVTPTILTFILCFSFYQWEPMTYGSYRYPNWSMVLGWLMLACSVIWIPIMFVIKMYLAPGRFIERLKLVCSPQPDWGPFLAQHRGERYKNMIDPLGTSSLGLKLPVKDLELGTQC	–	stoichiometry N (cross-linking [3]): 2

From PMC4503265 (The Journal of biological chemistry, 2008)
